Experiments:
Experiment in all cases: biochemical
Assay type in all cases: biochemical
266 human kinases [1] = biological target: 266 human kinases (Homo sapiens, UniProt P07949, V804M); details: Ret(V804M)(h); 100 μM
Method in brief: (§1)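 Radiometric filter-binding format: a positively charged substrate takes up radiolabelled phosphate from ATP unless the kinase is inhibited, then is captured on a negatively charged filter membrane. Counts from scintillation are expressed relative to a 100% activity control.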

266 human kinases [2] = biological target: 266 human kinases (Homo sapiens, UniProt Q00526); details: CDK3/cyclinE(h); 100 μM
Sequence of 266 human kinases (Homo sapiens, UniProt Q00526) (Q00526 whole entry): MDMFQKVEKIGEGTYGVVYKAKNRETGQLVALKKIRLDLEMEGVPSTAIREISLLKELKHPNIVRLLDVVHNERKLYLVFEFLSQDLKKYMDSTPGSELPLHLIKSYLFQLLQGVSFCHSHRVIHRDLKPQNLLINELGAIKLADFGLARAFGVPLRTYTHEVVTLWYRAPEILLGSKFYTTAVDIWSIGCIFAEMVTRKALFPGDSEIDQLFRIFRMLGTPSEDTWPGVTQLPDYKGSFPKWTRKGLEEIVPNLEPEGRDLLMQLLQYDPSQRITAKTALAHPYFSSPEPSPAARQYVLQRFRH
Method in brief: as §1

266 human kinases [3] = biological target: T1, 266 human kinases (Homo sapiens, UniProt Q13188); details: MST2(h); 100 μM
T1 sequence (Q13188 1-491): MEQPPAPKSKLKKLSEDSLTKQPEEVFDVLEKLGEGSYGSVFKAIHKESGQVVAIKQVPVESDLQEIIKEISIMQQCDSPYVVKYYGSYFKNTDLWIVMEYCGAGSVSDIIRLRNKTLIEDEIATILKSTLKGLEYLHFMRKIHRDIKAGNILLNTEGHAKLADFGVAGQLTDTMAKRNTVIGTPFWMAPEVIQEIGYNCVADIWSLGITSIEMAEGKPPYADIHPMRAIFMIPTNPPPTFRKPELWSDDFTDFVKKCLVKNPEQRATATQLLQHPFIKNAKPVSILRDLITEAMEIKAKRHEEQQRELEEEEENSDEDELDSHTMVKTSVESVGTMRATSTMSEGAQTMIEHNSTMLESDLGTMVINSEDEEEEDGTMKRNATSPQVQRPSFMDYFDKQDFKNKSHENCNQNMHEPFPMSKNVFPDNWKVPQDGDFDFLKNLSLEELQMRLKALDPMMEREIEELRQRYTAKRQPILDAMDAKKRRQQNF
Method in brief: as §1

266 human kinases [4] = biological target: T2, 266 human kinases (Homo sapiens, UniProt Q7L7X3); details: TAO1(h); 100 μM
T2 sequence (Q7L7X3 1-1001): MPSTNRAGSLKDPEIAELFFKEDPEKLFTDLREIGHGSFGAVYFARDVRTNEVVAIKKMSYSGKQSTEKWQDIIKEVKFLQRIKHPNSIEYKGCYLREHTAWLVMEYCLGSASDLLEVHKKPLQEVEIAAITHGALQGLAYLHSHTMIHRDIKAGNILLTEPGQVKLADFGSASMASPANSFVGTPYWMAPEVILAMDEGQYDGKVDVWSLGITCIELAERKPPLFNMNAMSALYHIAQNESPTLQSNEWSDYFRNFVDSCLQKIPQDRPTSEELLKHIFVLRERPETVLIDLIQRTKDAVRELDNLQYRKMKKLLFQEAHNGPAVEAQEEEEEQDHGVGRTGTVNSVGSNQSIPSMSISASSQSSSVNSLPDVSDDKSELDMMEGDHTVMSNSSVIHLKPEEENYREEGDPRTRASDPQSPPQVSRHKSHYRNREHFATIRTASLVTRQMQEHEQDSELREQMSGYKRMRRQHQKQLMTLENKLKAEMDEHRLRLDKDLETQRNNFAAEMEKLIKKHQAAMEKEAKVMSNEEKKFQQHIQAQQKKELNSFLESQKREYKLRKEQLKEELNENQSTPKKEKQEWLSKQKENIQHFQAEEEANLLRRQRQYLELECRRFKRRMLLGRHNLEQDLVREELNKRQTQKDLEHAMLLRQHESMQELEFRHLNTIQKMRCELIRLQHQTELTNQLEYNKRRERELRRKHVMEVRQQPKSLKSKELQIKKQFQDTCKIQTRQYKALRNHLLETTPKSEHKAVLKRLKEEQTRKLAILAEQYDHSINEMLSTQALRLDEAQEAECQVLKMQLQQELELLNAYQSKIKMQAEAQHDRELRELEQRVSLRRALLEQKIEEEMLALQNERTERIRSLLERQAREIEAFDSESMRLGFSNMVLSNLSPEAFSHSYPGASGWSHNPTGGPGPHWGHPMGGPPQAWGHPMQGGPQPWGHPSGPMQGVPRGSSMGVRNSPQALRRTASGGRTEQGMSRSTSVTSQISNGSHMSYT
Method in brief: as §1

266 human kinases [5] = biological target: 266 human kinases (Homo sapiens, UniProt Q9H422); details: HIPK3(h); 100 μM
Sequence of 266 human kinases (Homo sapiens, UniProt Q9H422) (Q9H422 whole entry): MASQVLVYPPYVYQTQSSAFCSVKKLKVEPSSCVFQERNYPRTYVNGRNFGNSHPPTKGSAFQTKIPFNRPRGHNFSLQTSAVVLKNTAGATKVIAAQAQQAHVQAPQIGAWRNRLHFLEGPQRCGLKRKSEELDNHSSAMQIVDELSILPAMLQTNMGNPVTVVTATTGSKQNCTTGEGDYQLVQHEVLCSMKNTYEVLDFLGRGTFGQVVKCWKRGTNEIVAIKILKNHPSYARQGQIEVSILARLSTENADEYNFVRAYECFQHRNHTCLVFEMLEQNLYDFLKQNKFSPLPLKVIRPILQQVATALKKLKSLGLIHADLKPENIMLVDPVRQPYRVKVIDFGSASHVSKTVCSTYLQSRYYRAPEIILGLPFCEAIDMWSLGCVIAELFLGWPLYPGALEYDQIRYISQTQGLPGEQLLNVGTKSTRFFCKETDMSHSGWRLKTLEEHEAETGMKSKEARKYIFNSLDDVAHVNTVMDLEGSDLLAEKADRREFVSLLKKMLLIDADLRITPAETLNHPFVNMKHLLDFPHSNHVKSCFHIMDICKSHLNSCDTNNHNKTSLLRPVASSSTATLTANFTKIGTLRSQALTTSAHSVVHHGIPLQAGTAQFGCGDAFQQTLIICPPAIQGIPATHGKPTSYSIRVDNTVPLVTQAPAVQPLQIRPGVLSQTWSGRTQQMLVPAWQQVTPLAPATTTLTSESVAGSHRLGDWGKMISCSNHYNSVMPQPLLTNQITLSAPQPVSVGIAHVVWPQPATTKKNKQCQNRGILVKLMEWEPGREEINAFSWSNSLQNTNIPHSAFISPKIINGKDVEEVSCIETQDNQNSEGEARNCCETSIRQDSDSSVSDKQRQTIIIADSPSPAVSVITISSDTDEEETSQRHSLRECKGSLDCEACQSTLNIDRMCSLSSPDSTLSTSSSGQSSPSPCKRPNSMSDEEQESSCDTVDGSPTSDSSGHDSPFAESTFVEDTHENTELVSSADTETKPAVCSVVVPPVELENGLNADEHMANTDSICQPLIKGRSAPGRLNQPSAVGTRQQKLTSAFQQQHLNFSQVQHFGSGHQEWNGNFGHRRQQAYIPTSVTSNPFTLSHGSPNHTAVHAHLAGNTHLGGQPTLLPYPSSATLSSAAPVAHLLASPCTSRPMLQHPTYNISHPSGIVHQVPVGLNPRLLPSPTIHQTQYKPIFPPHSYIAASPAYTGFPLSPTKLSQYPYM
Method in brief: as §1

266 human kinases [6] = biological target: 266 human kinases (Homo sapiens, UniProt P19784); details: CK2α2(h); 100 μM
Sequence of 266 human kinases (Homo sapiens, UniProt P19784) (P19784 whole entry): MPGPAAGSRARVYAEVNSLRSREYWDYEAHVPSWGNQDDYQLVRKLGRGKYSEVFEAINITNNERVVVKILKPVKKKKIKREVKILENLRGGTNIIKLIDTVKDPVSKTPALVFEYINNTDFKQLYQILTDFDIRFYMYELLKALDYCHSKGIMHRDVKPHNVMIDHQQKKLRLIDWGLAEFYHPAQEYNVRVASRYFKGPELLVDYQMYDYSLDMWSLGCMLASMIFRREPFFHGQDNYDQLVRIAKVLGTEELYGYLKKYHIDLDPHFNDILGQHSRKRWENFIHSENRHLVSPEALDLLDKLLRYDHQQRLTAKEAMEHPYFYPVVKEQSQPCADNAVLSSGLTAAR
Method in brief: as §1

266 human kinases [7] = biological target: 266 human kinases (Homo sapiens, UniProt Q02763, R849W); details: Tie2(R849W)(h); 100 μM
Sequence of 266 human kinases (Homo sapiens, UniProt Q02763, R849W) (Q02763 23-1124 R849W): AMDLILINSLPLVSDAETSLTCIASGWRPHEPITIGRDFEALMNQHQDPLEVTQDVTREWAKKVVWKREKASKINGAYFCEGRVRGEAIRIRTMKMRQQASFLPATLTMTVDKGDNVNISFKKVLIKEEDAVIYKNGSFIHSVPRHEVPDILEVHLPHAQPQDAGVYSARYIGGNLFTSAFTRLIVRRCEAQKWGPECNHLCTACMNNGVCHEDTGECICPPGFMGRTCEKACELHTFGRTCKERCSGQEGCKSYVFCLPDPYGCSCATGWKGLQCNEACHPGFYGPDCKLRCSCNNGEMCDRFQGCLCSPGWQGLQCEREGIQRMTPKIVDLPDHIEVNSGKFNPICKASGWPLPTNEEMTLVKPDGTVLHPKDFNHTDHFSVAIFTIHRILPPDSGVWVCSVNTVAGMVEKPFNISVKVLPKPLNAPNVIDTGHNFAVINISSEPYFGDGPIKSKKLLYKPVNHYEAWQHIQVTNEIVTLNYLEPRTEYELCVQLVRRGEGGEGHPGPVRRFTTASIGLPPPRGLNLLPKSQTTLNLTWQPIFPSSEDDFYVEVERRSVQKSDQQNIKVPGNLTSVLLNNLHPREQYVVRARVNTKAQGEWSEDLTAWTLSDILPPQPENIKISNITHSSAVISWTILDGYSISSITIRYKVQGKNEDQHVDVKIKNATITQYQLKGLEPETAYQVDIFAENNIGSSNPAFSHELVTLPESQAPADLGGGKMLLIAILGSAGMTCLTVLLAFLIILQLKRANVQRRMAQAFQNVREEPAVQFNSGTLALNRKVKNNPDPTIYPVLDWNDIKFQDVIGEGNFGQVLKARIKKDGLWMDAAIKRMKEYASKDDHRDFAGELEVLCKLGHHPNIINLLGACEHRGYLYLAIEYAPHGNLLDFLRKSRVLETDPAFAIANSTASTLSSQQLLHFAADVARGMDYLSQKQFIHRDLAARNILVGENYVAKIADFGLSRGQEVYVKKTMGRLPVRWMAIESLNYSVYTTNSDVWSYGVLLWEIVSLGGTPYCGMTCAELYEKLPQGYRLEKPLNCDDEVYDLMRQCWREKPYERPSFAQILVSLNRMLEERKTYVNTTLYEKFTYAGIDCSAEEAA
Method in brief: as §1

## HRRIKAWLKKIKALARQLGVAA (mammal) [MMI-0500]
266 human kinases [1]
  % activity: 36%
266 human kinases [2]
  % activity: 8%
266 human kinases [3]
  % activity: 2%
266 human kinases [4]
  % activity: 24%
266 human kinases [5]
  % activity: 85%

## YARAAARQARAKALNRQLGVA (mammal) [MMI-0200]
266 human kinases [6]
  % activity: 88%
266 human kinases [7]
  % activity: 89%

Source: patent publication US20140072613A1, “Compositions and Methods for Treating Cutaneous Scarring” (priority 2012, published 2014)
